The labels stand for the following.
T1: human ACVR1 extracellular domain expressed with a C-terminal mouse IgG2a Fc tag (human)
T1 construct: also called hACVR1-mFc; REGN3112
T1 chain: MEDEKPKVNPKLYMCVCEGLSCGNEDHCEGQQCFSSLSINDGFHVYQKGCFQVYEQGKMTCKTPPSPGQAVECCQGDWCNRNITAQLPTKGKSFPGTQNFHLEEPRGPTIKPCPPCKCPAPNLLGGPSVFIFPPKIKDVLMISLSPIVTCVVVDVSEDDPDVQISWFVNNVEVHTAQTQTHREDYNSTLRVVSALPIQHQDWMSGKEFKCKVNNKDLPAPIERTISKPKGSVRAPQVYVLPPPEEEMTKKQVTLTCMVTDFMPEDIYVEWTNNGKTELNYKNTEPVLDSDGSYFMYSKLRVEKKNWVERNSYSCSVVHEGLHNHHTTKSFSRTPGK

T2: dimeric mouse ACVR1 (mouse, UniProt P37172 21-123, limits assumed)
T2 construct: also called Mouse Receptor ACVR1
T2 sequence (looked up): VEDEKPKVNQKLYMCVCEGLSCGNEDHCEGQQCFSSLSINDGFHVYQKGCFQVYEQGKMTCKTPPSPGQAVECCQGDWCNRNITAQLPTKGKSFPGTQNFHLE

T3: dimeric mouse ACVRL1 (mouse, UniProt Q61288 23-119, limits assumed)
T3 construct: Construct and dimerising part not described; also called Mouse Receptor ACVRL1
T3 sequence (looked up): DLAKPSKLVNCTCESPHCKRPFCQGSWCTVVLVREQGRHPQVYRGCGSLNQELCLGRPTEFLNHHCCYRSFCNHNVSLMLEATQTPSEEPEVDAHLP

B1: REGN 5168 (antibody, human IgG4 S228P, kappa, V domains shown)
VH: QVQLVQSGAEVKEPGASVKVSCKASGYTFAEYYMHWVRQAPGQGLEWMGAINPSGSHTSYAQKFQGRVTMTRDTSTSTVYMELSSLRSEDTAVYYCARSISGKRGGDYYGMDVWGQGTTVTVSS
VL: DIQMTQSPSTLSASVGDRVTITCRASQSISSWLAWYQQKPGKAPKLLIYKASSLESGVPSRFSGSGSGTEFTLTISSLQPDDFATYYCQQYSIFPFTFGGGTKVEIKR
notes: also called REGN 5168-L1
B2: REGN 5166 (antibody, human IgG4 S228P, kappa, V domains shown)
VH: QVQLVESGGGVVQPGRSLRLSCAASGFTFSAYWMHWVRQAPGKGLEWVAVISYDGSNKYYADSVKGRFTISRDHSKNTLYLQMNSLRAEDTAVYYCAKGDAYDSWRILLGGDYYGMDVWGQGTTVTVSS
VL: EIVLTQSPGTLSLSPGERATLSCRASQSVSSSYLAWYQQKPGQAPRPLIYGASSRATGIPDRFSGSGSGTDFTLTISRLEPEDFAVYYCQQGGDAPPYTFGGGTKVEIKR
notes: also called REGN 5166-L1
B3: REGN 5167 (antibody, human IgG4 S228P, kappa, V domains shown)
VH: QLQLQESGPGLVKPSETLSLTCTVSGGSITSSSYYWAWIRQPPGKGLEWIGKIYYSGSTHYNPSLKSRVTISVDTSKNQFSLKLSSVTAADTAVYYCARVGGHGYGDSAGLAFDIWGQGTMVTVSS
VL: EIVLTQSPGTLSLSPGERATLSCRASQSVSSAFLAWYQQKPGQAPRLLIYGASYRHTGIPDRFSGSGSGTDFTLTISRLEPEDFAVYYCQHYGVGPRTFGGGTKVEIKR
notes: also called REGN 5167-L1

For the first assay, the target named is T1, human ACVR1 extracellular domain …. The experiment in a line: SPR Biacore T200, mAb captured by anti-human Fc, hACVR1-mFc injected, 37C. How it is done: Equilibrium dissociation constants (KD) for ACVR1 binding to purified anti-ACVR1 monoclonal antibodies were determined using a real-time surface plasmon resonance (SPR) based Biacore T200 biosensor. All binding studies were performed in 10 mM HEPES, 150 mM NaCl, 3 mM EDTA, and 0.05% v/v surfactant Tween-20, pH 7.4 (HBS-EP) running buffer at […]. The Biacore CM5 sensor surface was first derivatized by amine coupling with a monoclonal mouse anti-human Fc antibody (REGN2567) to capture anti-ACVR1 monoclonal antibodies. Different concentrations of ACVR1 reagents, human ACVR1 extracellular domain expressed with a C-terminal myc-myc-hexahistidine tag (hACVR1-mmh; REGN3111, SEQ ID NO: 63), mouse ACVR1 extracellular domain expressed with a C-terminal myc-myc-hexahistidine tag (mACVR1-mmh; REGN3407, SEQ ID NO: 65), human ACVR1 extracellular domain expressed with a C-terminal mouse IgG2a Fc tag (hACVR1-mFc; REGN3112, SEQ ID NO: 64); and mouse ACVR1 extracellular domain expressed with a C-terminal mouse IgG2a Fc tag (mACVR1-mFc, R&D system), at concentrations ranging from 0.41 nM to 100 nM in a series of 3-fold dilutions prepared in HBS-EP running buffer were injected at a flow rate of 50 μL/min for 1.5 minutes. The dissociation of different ACVR1 reagents bound to anti-ACVR1 monoclonal antibodies was monitored for 20 minutes in HBS-EP running buffer. At the end of each cycle, the anti-ACVR1 monoclonal antibodies capture surface was regenerated using a 12 sec injection of 20 mM H3PO4. The association rate (ka) and dissociation rate (kd) were determined by fitting the real-time binding sensorgrams to a 1:1 binding model with mass transport limitation using Scrubber 2.0c curve-fitting software. Binding dissociation equilibrium constant (KD) and dissociative half-life (t½) were calculated from the kinetic rates as: […]
Binding kinetics parameters for different ACVR1 reagents to anti-ACVR1 monoclonal antibodies of the invention at 37° C. are shown in Table 5 through Table 8.
Usually Kd stands for the equilibrium constant for the complex coming apart. The term koff denotes a measure of how fast the partners let go of each other. A high value points to fast dissociation. One may read the kon as a measure of how fast the partners come together. A high value points to fast association. For orientation: t½ means how long it takes for the measured level to halve. As for B1, the “100 nM Ag Bound (RU)” value came out at 145 RU; the affinity, expressed as Kd, was 0.191 nM; the koff worked out at 0.000357 s⁻¹; the kon was 1.87e+06 M⁻¹ s⁻¹. The molecule further displayed a t½ of 0.533 h.

As for B2, the “100 nM Ag Bound (RU)” value turned out to be 142 RU, binding was put at a Kd of 0.0478 nM, the koff is 5.65e-05 s⁻¹ and the kon worked out at 1.18e+06 M⁻¹ s⁻¹. For the same molecule, the t½ is 3.4 h.

On to B3, for which the “100 nM Ag Bound (RU)” value is 141 RU, the Kd was 0.0481 nM, the koff turned out to be 5.36e-05 s⁻¹ and the kon was 1.11e+06 M⁻¹ s⁻¹. The t½ is 3.58 h.

A further assay deals with T2, dimeric mouse ACVR1. Briefly: SPR Biacore T200, mAb captured by anti-human Fab, 100 nM dimeric receptor injected, 25C. How it is done:
(§1) ACVR1 mAbs were tested for cross-reactivity to a panel of bone morphogenic protein type 1 receptors including human and mouse ACVR1, BMPR1A, and BMPR1B, as well as ACVRL1 on a Biacore T200 as follows. In order to measure the specificity of ACVR1 mAbs, ACVR1 mAbs were captured with anti-human Fab immobilized on a CM5 chip. 100 nM or 10 nM of dimeric human or mouse ACVR1, ACVRL1, BMPR1A or BMPR1B were injected at 30 μL/min for 2 min (duplicate injections) and the experiment was performed at 25° C. Binding of different receptors to the captured mAb was determined using Scrubber 2.0c software.
In general terms: In SPR one partner is held on a chip, and binding of the other changes the refractive index at the surface.
Consider B1, for which the “100 nM Mouse Receptor Binding” value turned out to be 140 RU.

Regarding B2, the “100 nM Mouse Receptor Binding” value worked out at 141 RU.

Consider B3, for which the “100 nM Mouse Receptor Binding” value was found to be 130 RU.

In another assay the target is T3, dimeric mouse ACVRL1. The assay is described as above. How it is done:
as §1
Consider B1, for which the “100 nM Mouse Receptor Binding” value is 3 RU.

For the molecule B2, the “100 nM Mouse Receptor Binding” value worked out at 4 RU.

Take B3: the “100 nM Mouse Receptor Binding” value worked out at 1 RU.

For another assay, the target named is T4, dimeric mouse BMPR1A (mouse, UniProt P36895 24-152, limits assumed).
T4 construct: Construct and dimerising part not described; also called Mouse Receptor BMPR1A
T4 sequence (P36895 24-152 limits assumed): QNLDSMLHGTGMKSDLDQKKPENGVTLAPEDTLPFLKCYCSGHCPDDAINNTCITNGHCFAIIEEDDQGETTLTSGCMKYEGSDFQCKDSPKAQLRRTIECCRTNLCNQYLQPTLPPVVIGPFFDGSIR
Described as above. How it is done: as §1
Turning to B1, the “100 nM Mouse Receptor Binding” value turned out to be 8 RU.

Turning to B2, the “100 nM Mouse Receptor Binding” value was 9 RU.

B3: the “100 nM Mouse Receptor Binding” value came out at 3 RU.

The values are drawn from patent US20240150474A1 (Regeneron, published 2024).
